PMC8323339 (Immunity, 2021)
Like-named read-outs stand apart in the source and are kept apart here.

What was measured:
[1] = biological target: T1, SARS-CoV-2 Spike receptor-binding domain (RBD), wild type, as used for BLI (SARS-CoV-2, wild type, UniProt P0DTC2); assay: BLI
[2] = biological target: SARS-CoV-2 RBD, as used for crystallization (SARS-CoV-2, wild type, UniProt P0DTC2); assay: crystal structure
[3] = biological target: T1, SARS-CoV-2 Spike receptor-binding …

B1: C099 IgG (antibody, V domains shown)
VH: EVQLVESGGGLIQPGGSLRLSCAASGITVSSNYMSWVRQAPGKGLEWVSVMYAGGSTFYADSVKGRFTISRDDSKNTLFLQMNSLRAEDTAIYYCARDLYSSGGTDIWGQGTMVTVSS
VL: EIVLTQSPGTLSLSPGERATLSCRASQSIGSSYLAWYQQKPGLAPRLLIYGASRRATGIPDKFSGSGSGADFTLTISRLEPEDFAVYYCQQYGSSPGTFGQGTKVEIK
B1: binds [1].

B2: C099 Fab (Fab, V domains shown)
VH: B1 VH
VL: B1 VL
B2: binds [2].

B3: C548 IgG (antibody, V domains shown)
VH: QVQLVQSGAEVKKPGSSVKVSCKASGGTFSSYAISWVRQAPGQGLEWMGGIIPIFGTANYAQKFQGRVTITADESTSTAYMELSSLRSEDTAVYYCARREAYGPRDYYYYYGMDVWGQGTTVTVSS
VL: QSALTQPPSASASLGASVTLTCTLSSGYSNYKVDWYQQRPGKGPRFVMRVGTGGIVGSKGDGIPDRFSVLGSGLNRYLTIKNIQEEDESDYHCGADQGSGSNFVGVFGGGTKLTV
B3: binds [1].

B4: C549 (antibody, V domains shown)
VH: QVQLVQSGAEVKKPGSSVKVSCKASGGTFSTSAISWVRQAPGQGLEWMGGIIPFFGTPNYAQKFQGRVTIIADESTTTAYMELSGLRFEDSAVYYCARREPYGPRDYYYFFGMDVWGPGTTVTVSS
VL: QSALTQPPFASASLGASVTLTCTLSSDYSYYKVDWYQQRPGKGPRFVIRVGPGGIVGSKGDGFPDRFSVLGSGLNRSLTINNIQEEDEGDYHCGADEGSGGTFVGVFGGGTKLTV
B4: binds [3].

B5: C080 IgG (antibody, V domains shown)
VH: EVQLVQSGAEVKKPGESLNISCKASGYSFTIYWIAWVRQLPGKGLEWMGIIYPGDSDTRYSPSFQGQVTISADKSISTAYLQWRSLKASDSAVYYCARGVAVDWYFDLWGRGTLVTVSS
VL: QSVLTQPPSVSGAPGQRVTISCAGSSSNIGAGFDVYWYQQLPGTAPKLLIYGNNNRPSGVPDRFSGSKSGTSASLAITGLQAEDEADYYCQSSGSVLSDLYVFGTGTKVTVL
B5: binds [1].
